Results on 40 sequences are retold here after the nanobody polyreactivity screen of Harvey et al. (2022).

This data set can be described thus: yeast display, Sf9 membrane polyspecificity reagent, FACS + sequencing; frameworks hold sequencing errors. The gist of the method: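 Nanobodies from a synthetic yeast display library (Saccharomyces cerevisiae BJ5465), induced 36–48 hours with galactose, were stained 1 hour at 4 °C with 10% biotinylated, detergent-solubilized Sf9 membrane reagent, enriched on streptavidin microbeads, then FACS-sorted. Anti-HA (expression) and streptavidin (reagent binding) fluorescence set low and high (top ~1%) gates. Polyreactivity labels come from the gate of origin. Genes were colony-PCR amplified, MiSeq 2 × 250 sequenced and filtered by CDR length.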
Regarding “QVQLVESGGGLVQAGGSLRLSCAASGRIFPRNAMGWYRQAPGQERELVAAITKSGGSTYYADSVKGRFTISRDNAKNTVYLQMNSLKPEDTAVYYCNAVQYRNYYWGQGTQVTVSS”, the “polyreactivity (PSR sort gate)” value is recorded as “high polyreactivity”.

Regarding “QVQLVESGGGLVQAGGSLRLSCAASGRIFPRYAMGWYRQAPGKERELVAAITTGGSTYADSVKGRFTISRDNAKNTVYLQMNSLKPEDTAVYYCAKRDSNKRDYWGQGTQVTVSS”, the “polyreactivity (PSR sort gate)” value was “low polyreactivity”. With “QVQLVESGGGLVQAGGSLRLSCAASGRIFPSYAMGWYRKAPGKERELVAAISDSDGSTYYADSVKGRFTISRDNAKNTVYLQMNSLKPEDTAVYYCAAEGSFPAYDYWGQGTQVTVSS”, the “polyreactivity (PSR sort gate)” value is reported as “low polyreactivity”.

With “QVQLVESGGGLVQAGGSLRLSCAASGRIFPSYAMGWYRQAPGKERELDATISSGGRTYYADSVKGRFTISRDNAKNTVYLQMNILKPEYTAVYYCNADRTQDRNPYTYATFDYWGQGTQVTVSS”, the “polyreactivity (PSR sort gate)” value was “low polyreactivity”. As for “QVQLVESGGGLVQAGGSLRLSCAASGRIFPSYAMGWYRQAPGKERELVAAISYSGASTYYADSVKGRFTFSRDNAKNTVYLQMNSLKPEDTAVYYCNAESGPKYYWGYAGTFDYWGQGTQVTVSS”, the “polyreactivity (PSR sort gate)” value was “low polyreactivity”. “QVQLVESGGGLVQAGGSLRLSCAASGRIFPSYAMGWYRQAPGKERELVATISSGGRTYYADSVKGRFTISRDNAKNTVYLQMTSLKPEDTAVYYCARRSLYHVRTQIYEYWGQGTQVTVSS”: the “polyreactivity (PSR sort gate)” value is listed as “low polyreactivity”. With “QVQLVESGGGLVQAGGSLRLSCAASGRIFPTNAMGWSRQAPGKERELVASITRSGSTYYADSVKGRFTISRDHAKNTVYLQMNSLKPEDTAVYYCAGYAYIFLDWGGYPYYLYEYDYWGQGTQVTVSS”, the “polyreactivity (PSR sort gate)” value is given as “low polyreactivity”. Take “QVQLVESGGGLVQAGGSLRLSCAASGRIFPTNAMGWYRQAPGKERVFVAAITWGGGSTYYAVSVKGRFTISRDNAKNTVYLQMNSLKPEDTAVYYCAATGHIVFFRSYDYGYWGQGTQVTVSS”: the “polyreactivity (PSR sort gate)” value is “low polyreactivity”. For “QVQLVESGGGLVQAGGSLRLSCAASGRIFPTYAMGWYRQAPGKERELFAGITSGGRTNYADSVKGRFTISRDNAKNTVYLQMNSLKPEDTAVYYCAKRVWPRDQYGKRNPRMDYWGQGTQVTVSS”, the “polyreactivity (PSR sort gate)” value is “high polyreactivity”.

Take “QVQLVESGGGLVQAGGSLRLSCAASGRIFPTYAMGWYRQAPGKERELVAAITWRGGRTYYADSEKGRFTISRDYAKNTVYLQMNSLKPEDTAVYYCAAGWLTRSYEYDYWGQGTQVTVSS”: the “polyreactivity (PSR sort gate)” value is “high polyreactivity”. As to “QVQLVESGGGLVQAGGSLRLSCAASGRIFPTYAMGWYRQAPGKERELVAGITSGGRTNYADSVKGRFTISRDNAKNTVYLQMNSLKQEDTAVYYCDKRVWPRDQYGKRNPRMDYWGQGTQVTVSS”, the “polyreactivity (PSR sort gate)” value is on record as “high polyreactivity”. On to “QVQLVESGGGLVQAGGSLRLSCAASGRIFPTYAMVWYRQAPGKDRELVASISWSGGRTYYADSVKGRFSISRDNAKITVFLQMNSLKPEDTAVYYCAKRTYQGEGTVKRRYDYWGQVTQVTVSS”, for which the “polyreactivity (PSR sort gate)” value is “low polyreactivity”. Take “QVQLVESGGGLVQAGGSLRLSCAASGRIFPTYTMGWYRQAPGKERELVAGISYSGTSTSYADSVKGRFTISRDNAKNTVYLQMNSLKPEDTAVYYCAAKYYGRSFYYGYDYWGQGTQVTVSS”: the “polyreactivity (PSR sort gate)” value was “low polyreactivity”. As for “QVQLVESGGGLVQAGGSLRLSCAASGRIFPVNAMGWYRQAPGTERELVATISSGDITNYAHSVKGRFTISRDNAKNTVYLQMNSLKPEDTAVYYCAADYTWRAWTYYGIKYNYWGQGTQVTVSS”, the “polyreactivity (PSR sort gate)” value is recorded as “low polyreactivity”. For “QVQLVESGGGLVQAGGSLRLSCAASGRIFPVYTMGWYRQAPGKERELVAAITSSGGSTYYADSVKGRFTISRDNAKNTVYLQMNSLKPEDTAVYYCAKRAGWAYYYWGQGTQVTVSS” the value was “high polyreactivity”; for “QVQLVESGGGLVQAGGSLRLSCAASGRIFPWNTMGWYRQAPGKERELVAGITSCGSTNYADSVKGRFTISRDNAKNTVYLQMNSLKPEDTAVYSCAARGYYWYISGVYEYEYWGQGTQVTVSS”, “low polyreactivity”. “QVQLVESGGGLVQAGGSLRLSCAASGRIFPWYAMGWYRQAPGKERALVAAINWRAGRTYYADSVKGRFTISRDNAKNTVYLQMNSLKPEDTAVYYCAAETYSSGEWYDYWGQGTQVTVSS”: the “polyreactivity (PSR sort gate)” value is given as “high polyreactivity”. For “QVQLVESGGGLVQAGGSLRLSCAASGRIFPWYAMGWYRQAPGKERELVATITRGTSTNYADSVKGRFTISRDNAKNTVYLQMNSLKPEDTAVYYCAASSSRRRYYYWGQGTQVTVSS” the value was “high polyreactivity”; for “QVQLVESGGGLVQAGGSLRLSCAASGRIFPYYAMGWYRQAPGKERELVAAISYRGTRTSYADSVKGRFTISRDNAKNTVYLQMNSLKPEDTAVYYCAAQRYFGISWPYDYWGQGTQVTVSS”, “high polyreactivity”; for “QVQLVESGGGLVQAGGSLRLSCAASGRIFPYYAMGWYRQAPGKERELVAAITQGGGRTYYADSVKGRFTISRDNAKNTVYLQMNSLKPEDTAVYYCAKRFTIRALLLRWADYDYWGQGTQVTVSS”, “low polyreactivity”. On to “QVQLVESGGGLVQAGGSLRLSCAASGRIFPYYAMGWYRQAPGKERELVATIRGRVGTTYYADSVKGRFTISRDNAKNSVYLEMNSLKPEDTAVYYCNTDNYSPYRYVGLYDYWGQGTQVTVSS”, for which the “polyreactivity (PSR sort gate)” value is “high polyreactivity”. For the sequence “QVQLVESGGGLVQAGGSLRLSCAASGRIFPYYAMGWYRQAPGKERELVATISGGGSTDYADSVKGRFTISRDNAKNTVYLQMNSLKPEDTAVYYFAKKLRGWHTIITDYDYWGQGTQVTVSS”, the “polyreactivity (PSR sort gate)” value is “low polyreactivity”. Then “QVQLVESGGGLVQAGGSLRLSCAASGRIFQHNTMGWYRQAPGKERDFVAAIRRSGGSTYYADSVKGRFTISRDNAKNTVYLQMNSLKPEDTAVYYCAARDYPTGTRRWGGGDSWGQGTEVTVSS”, with “low polyreactivity”. Turning to “QVQLVESGGGLVQAGGSLRLSCAASGRIFQKNAMGWYRQAPGKERELVAAISGSGSTTNYADSVKGRFTISRDNAKNTVYLQLNSLTPEDTAVYYCATGKRGVSGRGFRYDYWGQGTQVTVSS”, the “polyreactivity (PSR sort gate)” value is on record as “high polyreactivity”. Regarding “QVQLVESGGGLVQAGGSLRLSCAASGRIFQRYAMGWYRQAPGKERELVAAITTGGRTYYADSVKGRFTISRDNAKNTVYLQMNSLKPEDTAVYYCAARFVGSRYRFDYWGQGTQVTVSS”, the “polyreactivity (PSR sort gate)” value is listed as “high polyreactivity”. In the case of “QVQLVESGGGLVQAGGSLRLSCAASGRIFQYNPMGWYIQAPGKERELVADITWIGGSTYADSVKGRFTISRDTAKNTVYLQMNSLKPEDTAVYYCNARYIYRFDYWGQGSQVTVSS”, the “polyreactivity (PSR sort gate)” value is “low polyreactivity”. “QVQLVESGGGLVQAGGSLRLSCAASGRIFQYNVMGWYRQAPGKERELVAAISSGGNTYYADSVKGRFTISRDNAKNTVYLQMNSLKPEDTAVYYCAADHYVPWPNYDYDYWGQGTQVTVSS”: the “polyreactivity (PSR sort gate)” value is on record as “low polyreactivity”.

For the sequence “QVQLVESGGGLVQAGGSLRLSCAASGRIFQYSAMGWYRQAPGKEREFVASITFRGGRTNYADSVKGRFTISRDNAKNTVYLQMNSLKPEDTAVYYCAVSLRRGGSGYAYDYWGQGTQVTVSS”, the “polyreactivity (PSR sort gate)” value is on record as “high polyreactivity”. On to “QVQLVESGGGLVQAGGSLRLSCAASGRIFQYYAAMGWYRQAPGKERELVASIRATGGSTYYADSVKGRFTISRDNAKNTVYLQMNSLKPEDTAVYYCAARFAAKSLPAYDYWGQGTQVTVSS”, for which the “polyreactivity (PSR sort gate)” value is on record as “low polyreactivity”. Consider “QVQLVESGGGLVQAGGSLRLSCAASGRIFQYYDMGWYRQAPGKERELVAAITFSGGSTYYADSVKGRFTISRDNAKNTVYLQMNSLKPEDTAVYYCARGYWVYYPDGDYWGQGTQVTVSS”, for which the “polyreactivity (PSR sort gate)” value is listed as “low polyreactivity”. For “QVQLVESGGGLVQAGGSLRLSCAASGRIFQYYDMGWYRQAPGKERELVATITSGGSTNYADSVKGRFTISRDNAKNTVYLQMNSLKPEDTAVYYCAALAYTASDYQPYDATEYNYWGQGTQVTVSS”, the “polyreactivity (PSR sort gate)” value was “low polyreactivity”. For “QVQLVESGGGLVQAGGSLRLSCAASGRIFRANAMGWSRQAPGKERELVAAISTSGGSTTYADSVKGRFTISRDNSKNTVYLQMNSLKPEDTAVYYCAVDSWLKWRDKWVIRHDYWGQGTQVTVSS”, the “polyreactivity (PSR sort gate)” value is “high polyreactivity”.

Consider “QVQLVESGGGLVQAGGSLRLSCAASGRIFRAYTMGWYRQAPGKERELVAAITWRGGRTYYADSVKGRFTISRDNAKNTVYLQMNSLKPEDTAVYYCAAVRKYRAMDYWGQGTQVTVSS”, for which the “polyreactivity (PSR sort gate)” value is given as “high polyreactivity”. Take “QVQLVESGGGLVQAGGSLRLSCAASGRIFRDNAMGWYRQAPGKERELVAAISRRGGSTYYADSVKGRFTISRDNAKNTVYLQMNSLKPEDTAVYYCNKTTQSRTFRYDYWGQGTQVTVSS”: the “polyreactivity (PSR sort gate)” value is recorded as “low polyreactivity”. For “QVQLVESGGGLVQAGGSLRLSCAASGRIFRDYAMGWYRQAPGNERELVAAISWSGGSTYYADSVKGRFTISRDNAKNTVYLQMNSLKPEDTAVYYCAGDYYGGDSYRYDYWGQGTQVTVSS” the value was “low polyreactivity”; for “QVQLVESGGGLVQAGGSLRLSCAASGRIFRDYSMGWYRQAPGKETELVATITWSGATTYYADSVKGRFTISRDNAKNTVYLQMNSLKPEDTAVYYCNTDTDVDVAFDSWGQGTQVTVSS”, “low polyreactivity”. For the sequence “QVQLVESGGGLVQAGGSLRLSCAASGRIFRDYVMGWYRQAPGKERELVAGITGSVDSTNYADSVKGRFTISRDNAKNTVYLQMNSLKPEDTAVYYCNAEFWRGTYRFGYWGQGTQVTVSS”, the “polyreactivity (PSR sort gate)” value is recorded as “low polyreactivity”. Consider “QVQLVESGGGLVQAGGSLRLSCAASGRIFRFYAMGWYRQAPGKDRELVAAISSRGGSTYYADSVTGRFTISRDNAKNTVYLQMNSLKPEDTAVYYCAKRSQKAYKYRDYRFDYWGQGTQVTVSS”, for which the “polyreactivity (PSR sort gate)” value was “high polyreactivity”.

Consider “QVQLVESGGGLVQAGGSLRLSCAASGRIFRGNAMGWYRQAPGKERELVAAISWGGGSTYYAYSVKGRFTISRDNAKNTVYLQMNSLKPEDTAVYYWNKEYVFWRFPNWYTYGYWGQGTQVTLSS”, for which the “polyreactivity (PSR sort gate)” value was “high polyreactivity”.

As for “QVQLVESGGGLVQAGGSLRLSCAASGRIFRGNVMGWYIQAPGKERELVATITSSARTYYADSVKGRFTISRDNAMITVYLQMNSLKPEDTAVYYCAAKTRWNFYYWGQGTQVSVSS”, the “polyreactivity (PSR sort gate)” value is “high polyreactivity”.
